Our source for the stoichiometry N values is article PMC4153629.

In assay [1] the target is GH67 α-glucuronidase Agu67A from Caldicellulosiruptor lactoaceticus 6A (Caldicellulosiruptor lactoaceticus 6A). Briefly: SEC; Superdex 200 column (33 mL elution volume), 50 mM sodium citrate, 150 mM NaCl, pH 6.0, 0.5 mL/min; apparent Mw from a calibration curve of log (Mw) vs. elution volume; self-association (homodimer).
The target of assay [2] is GH family 10 endo-β-1,4-xylanase Xyn10A from Caldicellulosiruptor lactoaceticus 6A (Caldicellulosiruptor lactoaceticus 6A). The description is as above.

One may read the stoichiometry N as the number of molecules, sites or subunits per partner or assembly.

In the case of “GH67 α-glucuronidase Agu67A from Caldicellulosiruptor lactoaceticus 6A (enzyme)”, the stoichiometry N in assay [1] stood at 2.

Consider “GH family 10 endo-β-1,4-xylanase Xyn10A from Caldicellulosiruptor lactoaceticus 6A (enzyme)”, for which the stoichiometry N in assay [2] was determined as 2.
